Patent publication US20250236666A1 (UNIVERSITE DE LILLE, published 2025)
Residue numbers refer to the chain shown, from its start. No end group written: not given here. *: point of attachment. Biotin = O=C1N[C@H]2[C@H](CS[C@H]2CCCCC(=O)*)N1; C6spacer = C6 spacer

T1: Peptide 2 (Pore Forming 1) TEDPEELGHFYDYPMAK-[biot] (human)
T1 construct: Synthetic biotinylated peptide immobilized at 10 µg/mL on streptavidin plates; also called P2
T1 peptide: TEDPEELGHFYDYPMAK-biotin

T2: Peptide 3 (Pore Forming 2) [biot]-[C6spacer]-DGPANYNVDLPFMYS (human)
T2 construct: Synthetic biotinylated peptide immobilized at 10 µg/mL on streptavidin plates; also called P3
T2 peptide: {Biotin-C6spacer}-DGPANYNVDLPFMYS

T3: Human Transient Receptor Potential Vanilloid 6 (TRPV6) channel protein (human, UniProt Q9H1D0 1-765, glycosylated/mature form (band around 95-100 kDa); N-glycosylation site at position 397)
T3 construct: Endogenous or vector-expressed TRPV6 of human cell lines (LNCaP, PC3M luc C6, transfected HEK); On live cells in flow cytometry and the functional assays; in whole cell lysates under denaturing conditions (monomer) in the immunoblots; also called hTRPV6
T3 sequence: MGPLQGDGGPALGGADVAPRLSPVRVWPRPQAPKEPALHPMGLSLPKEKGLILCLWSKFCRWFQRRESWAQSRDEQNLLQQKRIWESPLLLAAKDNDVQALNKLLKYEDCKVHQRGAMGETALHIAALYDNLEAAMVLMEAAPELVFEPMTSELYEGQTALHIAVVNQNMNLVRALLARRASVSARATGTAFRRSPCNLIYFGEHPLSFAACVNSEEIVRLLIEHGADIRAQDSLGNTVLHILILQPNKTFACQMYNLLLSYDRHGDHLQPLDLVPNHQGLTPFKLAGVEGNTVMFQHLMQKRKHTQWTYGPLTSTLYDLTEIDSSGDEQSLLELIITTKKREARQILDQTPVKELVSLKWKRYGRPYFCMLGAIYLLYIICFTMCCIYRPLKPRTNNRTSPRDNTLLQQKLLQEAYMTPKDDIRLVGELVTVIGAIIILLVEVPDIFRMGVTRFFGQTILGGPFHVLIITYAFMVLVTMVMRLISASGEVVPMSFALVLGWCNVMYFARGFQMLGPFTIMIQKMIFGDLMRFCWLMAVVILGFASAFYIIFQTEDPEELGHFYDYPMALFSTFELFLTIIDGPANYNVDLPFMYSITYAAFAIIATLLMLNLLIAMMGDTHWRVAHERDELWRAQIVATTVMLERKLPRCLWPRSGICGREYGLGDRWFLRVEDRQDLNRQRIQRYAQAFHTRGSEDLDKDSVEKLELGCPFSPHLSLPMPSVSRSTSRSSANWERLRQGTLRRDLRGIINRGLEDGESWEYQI

B1: Monoclonal antibody P2-R4-G08 (antibody, human IgG1, kappa, V domains shown)
VH: EVQLVESGGSLVKPGGSLRLSCAASGFTFSNYGMNWVRQAPGKGLEWISGISGSSRSIGYADFVKGRFTISRDNAKNSLYLQMNSLRAEDTAVYYCVRSSYYYGMDVWGRGTLVTVSS
VL: QSVLTQPASVSGSPGQSITISCAGTSSDVGGYGQVSWYQQHPGKAPKLMIYSDSSRPSGVSNRFSGSKSGNTASLTISGLQAEDEADYYCSSYTSYSTRVFGGGTKLEIKR
notes: scFv from phage display subcloned into Human IgG1 format, expressed in HEK293T; also called P2-R4-G8
B2: Monoclonal antibody P3-R5-H03 (antibody, human IgG1, kappa, V domains shown)
VH: B1 VH with Y32A, G50Y, S57Y, G59N, Y101S, Y102S
VL: B1 VL with Y32G, G33Y, Q34Y, S52G, S55N, Y93N, S95Y
notes: scFv from phage display subcloned into Human IgG1 format, expressed in HEK293T; also called P3-R5-H3
B3: Monoclonal antibody P3-R4-E11 (antibody, human IgG1, kappa, V domains shown)
VH: EVQLVESGGSLVKPGGSLRLSCAASGFTFSNSGMNWVRQAPGKGLEWISGISGSSRYIGYADFVKGRFTISRDNAKNSLYLQMNSLRAEDTAVYYCVRSNYGGMDVWGRGTLVTVSS
VL: B1 VL with Q34Y, S52Y, S55Y, Y96Q
notes: scFv from phage display subcloned into Human IgG1 format, expressed in HEK293T
B4: Monoclonal antibody P3-R5-E06 (antibody, human IgG1, kappa, V domains shown)
VH: EVQLVESGGSLVKPGGSLRLSCAASGFTFSNAYMNWVRQAPGKGLEWISSISGSSSYIGYADFVKGRFTISRDNAKNSLYLQMNSLRAEDTAVYYCVRSSYYNYDYGDAMDVWGRGTLVTVSS
VL: B1 VL with Y32N, G33Y, Q34Y, S52Q, S55N, S95G
notes: scFv from phage display subcloned into Human IgG1 format, expressed in HEK293T; also called P3-R5-E6
B5: Monoclonal antibody P3-R4-F03 (antibody, human IgG1, kappa, V domains shown)
VH: EVQLVESGGSLVKPGGSLRLSCAASGFTFSNNYMNWVRQAPGKGLEWISSIGGSSRDIYYADFVKGRFTISRDNAKNSLYLQMNSLRAEDTAVYYCVRSNSGMDVWGRGTLVTVSS
VL: B1 VL with Y32S, G33Y, Q34S, S52Y, S55Y, Y93N, S95Q, Y96S
notes: scFv from phage display subcloned into Human IgG1 format, expressed in HEK293T; also called P3-R4-F3
B6: Mouse monoclonal anti-TRPV6 antibody 82 (mAb82) (antibody, mouse IgG2a, kappa, V domains shown)
VH: EVKLLESGGGLVQPGGSLKLSCAASGFDFRRYWMSWVRQAPGKGLEWIGEINPDSSTINYTPSLKDKFIISRDNAKNTLYLQMSKVRSEDTALYYCARSASSHYFDYWGQGTTLTVSS
VL: DIVMSQSPSSLAVSVGEKVTMSCKSSQSLLYSSNQKNYLAWYQQKPGQSPKLLIYWASTRESGVPDRFTGSGSGTDFTLTISSVKAEDLAVYYCQQYYRYPTFGGGTKLEIKR
notes: also called mab82a; No. 82a

What was measured:
[1] = target: T1, Peptide 2 (Pore Forming 1) …; experiment: dose-response ELISA, biotinylated peptide on streptavidin plate, IgG 0.00282 to 500 nM, anti-Fab-HRP
Protocol: (§1) TRPV6 biotinylated peptides were immobilized at 10 μg/mL on a streptavidin coated plate. IgGs binding was tested at different concentrations (from 0.00282 to 500 nM) and detected using an anti-Fab-HRP (Sigma A0293).
(§2) IgGs binding to Human TRPV6 peptides was tested by ELISA. TRPV6 biotinylated peptides were immobilized at 10 μg/mL on a streptavidin coated plate. IgGs binding was tested at different concentrations (from 0.00282 to 500 nM) and detected using an anti-Fab-HRP (Sigma A0293).

[2] = target: T2, Peptide 3 (Pore Forming 2) …; experiment: as above
Protocol: as §1, §2

[3] = target: T3, Human Transient Receptor Potential …; experiment: immunoblotting of LNCaP whole cell lysates, denaturing conditions

Binder | EC50 [2] [nM] | further results
B1 | – | EC50 [1]: 0.49 nM
B2 | 0.36 | –
B3 | 0.9 | –
B4 | 0.98 | –
B5 | 0.86 | –
B6 | – | binding result [3]: binds
